Data published in patent US8217140B2, “Peptides capable of binding to serum proteins and compounds, constructs and polypeptides comprising the same” (Ablynx N.V., priority 2008, dated 2012).

Columns and labels:
[1] = system: platelet adhesion to fibrillar collagen; assay: Perfusion experiments: platelet adhesion to collagen at arterial shear rate; type: cell-based, human
Experimental: The perfusion experiments were performed with a single-pass perfusion chamber under non-pulsatile flow conditions using a modified small perfusion chamber with a slit height of 0.1 mm and a slit width of 2 mm. […] Citrated human blood was preincubated at 37° C. for 5 min with or without addition of test compound, and then perfused through the chamber for 5 min at a wall shear rate of 1600 s^−1 using an infusion/withdrawal pump (pump 22, model 2400-004, Harvard Apparatus, Holliston, Mass.). After the perfusion run, the coverslips were rinsed in Hepes buffered saline (10 mM Hepes, 150 mM NaCl, pH 7.4) and platelets were fixed with 5% glutaraldehyde and stained with May-Grünwald and Giemsa. Platelet deposition of the coverslip was evaluated as platelet surface coverage of 10 randomly chosen pictures using light microscopy (Olympus BX61 microscope using Analysis Five digital imaging solutions analysis software).

[2] = cynomolgus monkey, in vivo
Experimental: The pharmacokinetic profile of the constructs was analyzed in male cynomolgus monkeys of approximately 3 to 4 years old and was compared to the reference (SEQ ID NO:165). The constructs and the control were each injected in three monkeys at a dose of 2 mg/kg via an intravenous bolus injection. Blood samples were taken at predose, 5 min, 20 min, 1 h, 2 h, 4 h, 8 h (test day 1) after administration and at test days 2, 3, 5, 7, 9, 12, 15, 18, 21, 24, 27, 30, 33. In order to obtain at least 1 mL plasma per animal per sampling time, a sufficient volume of whole blood was withdrawn per sampling time. Plasma was collected after whole blood centrifugation for 30 minutes at 2200 g at room temperature (RT). The plasma samples were stored at −80° C. until analysis.
For bioanalytical determination of constructs and control article in monkey plasma, plasma samples were tested for levels of constructs and the control using ELISA based PK assays. The detection of control and constructs in the ELISA assays is based on the binding of these Nanobodies with vWF and the assay set-ups are as such that total vWF-binding Nanobody is detected.
For the reference (SEQ ID NO:165) and the construct of SEQ ID NO:167, 96-well microtiter plates (Maxisorp, Nunc, Wiesbaden, Germany) were coated overnight at 4° C. with neutravidin (Pierce) in 10:10 buffer at 3 μg/ml. Wells were aspirated and blocked for 1 hour at RT with PBS/1% casein. After this blocking step, wells were washed with PBS/0.05% Tween20. A biotinylated bivalent Nanobody against the constructs was added to the neutravidin coated plate at 2 μg/ml in PBS/0.1% casein and incubated for 1 hour at RT. After the incubation step of this capture tool, wells were washed 3 times with PBS/0.05% Tween20.
Preparations of the standards, QC samples and dilutions of the test samples were performed in a non-coated (polypropylene) plate. For the standard curve and QC-samples, solutions at the required concentrations were prepared in PBS/0.1% casein and spiked into 100% monkey plasma. To prepare standards and QC samples, a 1/100 dilution of the pure monkey plasma dilutions was made in IgM-Reducing Agent (Immunochemistry Technologies, Bloomington, USA) supplemented with 2.5% pooled human plasma (referred to as sample diluent). For the test samples, dilution factors for the test samples were estimated, and ranged between 1/100 to 1/9000 for the reference of SEQ ID NO:165 tests and between 1/100 and 12000 for the construct of SEQ ID NO: 167. Samples were diluted 1/100 in sample diluent in a first step, and if needed, further dilution was done in sample diluent supplemented with 1% cynomolgus plasma.
Standards, QC samples and diluted test samples were transferred onto the coated plate and incubated for 1 hour at RT. Afterwards the plates were washed followed by a complexation step with purified vWF (ZLB Behring). vWF diluted to 2.5 μg/ml for the assay for the reference of SEQ ID NO:165 and to 3 μg/ml for the assay for the construct of SEQ ID NO: 167 in PBS/0.1% casein was incubated on the plates for 30 minutes at RT. Plates were washed and Nanobody/vWF complexes bound to the capture tool detected with Rabbit anti-human vWF Ab (Dako, Denmark), diluted 1/2000 in PBS/0.1% casein and incubated for 30 minutes at RT. After washing, a 1/15000 dilution in PBS/0.1% casein of Horse-Radish-Peroxidase labelled goat anti-rabbit Ab (Dako, Denmark) was added to the plate and incubated for 30 minutes at RT. The enzyme coupled to the Ab catalyzes a chemical reaction with the substrate sTMB (3,3′,5,5′-tetramethylbenzidine, SDT reagents, Brussels, Belgium), resulting in a colorimetric change. After stopping this reaction after 10 minutes using HC1 (1N), the intensity of the colour was measured using a spectrophotometer at 450 nm. […]

HSA = HSA (Homo sapiens, UniProt P02768); assay: Biacore analysis of pH dependency of binding
Experimental: (§1) The pH dependent binding of vWF0055 on HSA and cynoSA was investigated by surface plasmon resonance using a Biacore 3000 instrument by assessing the affinity at three different pH's. In brief, HSA and cynoSA were amine-coupled to a separate CM5 sensor chip at a density of respectively 1800RU and 1900RU. Diluted samples, ranging in concentration between 25 nM to 1 μM vW0055 were prepared in three buffers. The three buffers used contained 50 mM phosphate, 150 mM NaCl and 0.005% surfactant P and were adjusted to either pH5, pH7 or pH8. Samples were injected at a flow-rate of 45 μL/min, association and dissociation were monitored during 120 sec and 300 sec. Binding curves were subsequently used to calculate the KD, association- and dissociation-rate constants with the BiaEvaluation software.

VWF = assay: Pharmacodynamic profile: ristocetin cofactor activity assay (% RICO) after i.v. administration; type: in vivo, Cynomolgus monkey
Experimental: For the constructs used in Example 14, pharmacodynamic characteristics upon compound administration were measured by means of a ristocetin cofactor activity assay (Biopool). The ristocetin cofactor activity is a functional assay for VWF, measuring the capacity of VWF to interact with the platelet receptor glycoprotein Ib using ristocetin as a modulator.
For pharmacodynamic data analysis, descriptive statistics (mean and SD) were calculated per dose group and per sampling time point using Microsoft Excel 2007. Response parameters and associated statistics for the overall time course were calculated by noncompartmental analysis of the response-time data using WinNonlin Pro 5.1 (Pharsight Corporation, USA; 2006). The non-compartmental analysis was based on a model for pharmacodynamic data (Model 220). The threshold value was set at 20% based on extensive historical PK/PD data on the vWF-0001 compound. Preclinical studies have shown that a complete inhibition of the pharmacodynamic marker are correlated with full antithrombotic efficacy. The following main pharmacodynamic parameters were determined: time below the threshold (Time below T), area under the threshold (AUC below T), time at which the % RICO first drops below the threshold (Tonset), and time at which the % RICO first returns back above the threshold (Toffset).

cynoSA = cynoSA (Macaca fascicularis, UniProt A2V9Z4); assay: Biacore analysis of pH dependency of binding; set-up: species or system cynomolgus monkey
Experimental: as §1

[3] = Chemical stability on storage at 37° C., RP-HPLC; type: physicochemical; conditions: 4 weeks incubation at 37° C. in D-PBS
Experimental: To evaluate the chemical stability of vWF0055, the Nanobody® vWF0055 was stored at 37° C. After 1, 2 and 4 weeks a sample was taken and analyzed for chemical or proteolytic modifications via RP-HPLC (Zorbax 300SB-C3, 4.6×150 mm (5 μm); trifluoroacetic acid/acetonitrile).

[4] = threshold 20% RICO, i.v. bolus 2 mg/kg, male Cynomolgus monkey, mean n = 3

cynoSA, sequence (A2V9Z4 25-608): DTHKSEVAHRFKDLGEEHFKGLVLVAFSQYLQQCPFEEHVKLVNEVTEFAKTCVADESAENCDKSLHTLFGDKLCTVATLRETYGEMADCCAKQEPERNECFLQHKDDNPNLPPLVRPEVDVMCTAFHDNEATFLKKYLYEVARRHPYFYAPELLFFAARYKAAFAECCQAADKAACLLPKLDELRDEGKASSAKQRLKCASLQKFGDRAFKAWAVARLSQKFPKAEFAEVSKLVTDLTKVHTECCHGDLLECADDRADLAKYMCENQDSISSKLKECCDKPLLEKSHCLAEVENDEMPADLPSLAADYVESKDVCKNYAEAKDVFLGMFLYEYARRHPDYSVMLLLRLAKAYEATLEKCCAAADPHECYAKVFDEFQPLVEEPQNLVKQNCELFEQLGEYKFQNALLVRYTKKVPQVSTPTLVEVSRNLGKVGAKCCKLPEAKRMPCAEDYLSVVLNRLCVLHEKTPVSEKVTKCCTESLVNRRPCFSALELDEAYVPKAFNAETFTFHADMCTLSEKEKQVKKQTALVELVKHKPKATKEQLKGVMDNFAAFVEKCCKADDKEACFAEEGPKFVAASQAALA

B1: 12A2_sv1-AAA-12A2_sv1-9GS-59C2 (protein)
chain: DVQLVESGGGLVQPGGSLRLSCAASGRTFSYNPMGWFRQAPGKGRELVAAISRTGGSTYYPESVEGRFTISRDNAKRTVYLQMNSLRAEDTAVYYCAAAGVRAEQGRVRTLPSEYTFWGQGTQVTVSSAAAEVQLVESGGGLVQPGGSLRLSCAASGRTFSYNPMGWFRQAPGKGRELVAAISRTGGSTYYPESVEGRFTISRDNAKRTVYLQMNSLRAEDTAVYYCAAAGVRAEQGRVRTLPSEYTFWGQGTQVTVSSGGGGSGGGSRDWDFDVFGGGTPVGG
Effective concentration compared to VWF0001 ([1]; FIG. 12): similar
inhibition of platelet adhesion to fibrillar collagen at arterial shear rate ([1]; citrated human blood, wall shear rate 1600 s^−1, FIG. 12): dose-dependently and completely inhibit
Vdss lower relative to vWF0001 [2]: 11 fold
dominant half-life (t½ dominant) increase relative to vWF0001 [2]: 85 fold
mean CL decrease compared to the control [2]: 26 fold
AUCinf ([2]; iv, 2 mg/kg): 1590 µg·h/mL
C0 ([2]; iv, 2 mg/kg): 46.5 µg/mL
decrease of affinity at pH5 (HSA; pH5): about 10 fold
pH at which the highest affinity was observed (HSA; pH5, pH7 or pH8 tested): 7
Tonset values (VWF; estimated, i.v. application): ~5 min
mean AUC under the threshold increase relative to vWF0001 (VWF; i.v. bolus): 118 fold
time below the threshold increase relative to vWF0001 (VWF; i.v. bolus): 105 fold
AUC below T (VWF; [4]): 781 % RICO * h
Time below T (VWF; [4]): 127 h
Tonset (VWF; time % RICO first drops below threshold, i.v. bolus 2 mg/kg): 0.074 h
Toffset (VWF; time % RICO first returns above threshold, i.v. bolus 2 mg/kg): 127 h
decrease of affinity at pH5 (cynoSA; pH5): about 10 fold
pH at which the highest affinity was observed (cynoSA; pH5, pH7 or pH8 tested): 7
chemical modifications or proteolytic degradation [3]: neither chemical modifications nor proteolytic degradation occurred
